Data taken from paper PMC5026590.

What was measured:
[1] = target: RyR2-S2814D (CaMKII phosphomimetic), knock-in mouse (mouse (endogenous in ventricular myocytes)) (UniProt E9Q401); test: FRET or BRET
[2] = target: RyR2-S2814A (non-phosphorylatable), knock-in mouse (mouse (endogenous in ventricular myocytes)) (UniProt E9Q401); test: FRET or BRET

Row | Kd [2] [nM] | Kd [1] [nM] | Substance | fold faster binding (wash-in) vs. S2814A myocytes [1] [fold]
1 | – | – | fluorescent DPc10 peptide (F-DPc10; RyR2 residues 2460-2495) (from UniProt P30957 2460-2495) | 2
2 | 20 | 72 | fluorescent calmodulin (F-CaM) (from UniProt P0DP23 1-149) (natural protein) | –
